# Experimental data published in patent publication US20210388087A1 (Chugai, published 2021).
# Numbering of substitutions follows the chain as printed.
# B1: CE115HA000/GLS3000 R54G (antibody, IgG1, name in Kabat numbering, V domains shown)
# VH: QVQLVESGGGVVQPGRSLRLSCAASGFTFSNAWMHWVRQAPGKGLEWVAQIKAKSNNYATYYAESVKGRFTISRDDSKNSLYLQMNSLKTEDTAVYYCRYVHYGAYYGVDAWGQGTTVTVSS
# VL: DIVMTQSPLSLPVTPGEPASISCRSSQSLVHSNRNTYLHWYQQKPGQAPRLLIYKVSNGFSGVPDRFSGSGSGTDFTLKISRVEAEDVGVYYCGQGTQVPYTFGQGTKLEIK
# notes: one-arm IgG1
# B2: CE115HA000/GLS3000 S25I (antibody, IgG1, name in Kabat numbering, V domains shown)
# VH: B1 VH
# VL: B1 VL with S25I, G59R
# notes: one-arm IgG1
# B3: CE115HA000/GLS3000 S25L (antibody, IgG1, name in Kabat numbering, V domains shown)
# VH: B1 VH
# VL: B1 VL with S25L, G59R
# notes: one-arm IgG1
# B4: CE115HA000/GLS3000 S26D (antibody, IgG1, name in Kabat numbering, V domains shown)
# VH: B1 VH
# VL: B1 VL with S26D, G59R
# notes: one-arm IgG1
# B5: CE115HA000/GLS3000 R54P (antibody, IgG1, name in Kabat numbering, V domains shown)
# VH: B1 VH
# VL: B1 VL with G59P
# notes: one-arm IgG1
# B6: CE115HA000/GLS3000 R54W (antibody, IgG1, name in Kabat numbering, V domains shown)
# VH: B1 VH
# VL: B1 VL with G59W
# notes: one-arm IgG1
# B7: CE115HA000/GLS3000 R77S (antibody, IgG1, name in Kabat numbering, V domains shown)
# VH: B1 VH
# VL: B1 VL with G59R, R82S
# notes: one-arm IgG1
# B8: CE115HA000/GLS3000 S25T (antibody, IgG1, name in Kabat numbering, V domains shown)
# VH: B1 VH
# VL: B1 VL with S25T, G59R
# notes: one-arm IgG1
# B9: CE115HA000/GLS3000 S25V (antibody, IgG1, name in Kabat numbering, V domains shown)
# VH: B1 VH
# VL: B1 VL with S25V, G59R
# notes: one-arm IgG1
# B10: CE115HA000/GLS3000 R54S (antibody, IgG1, name in Kabat numbering, V domains shown)
# VH: B1 VH
# VL: B1 VL with G59S
# notes: one-arm IgG1
# B11: CE115HA000/GLS3000 R54Q (antibody, IgG1, name in Kabat numbering, V domains shown)
# VH: B1 VH
# VL: B1 VL with G59Q
# notes: one-arm IgG1
# B12: CE115HA000/GLS3000 S25D (antibody, IgG1, name in Kabat numbering, V domains shown)
# VH: B1 VH
# VL: B1 VL with S25D, G59R
# notes: one-arm IgG1
# B13: CE115HA000/GLS3000 S25E (antibody, IgG1, name in Kabat numbering, V domains shown)
# VH: B1 VH
# VL: B1 VL with S25E, G59R
# notes: one-arm IgG1
# B14: CE115HA000/GLS3000 R54T (antibody, IgG1, name in Kabat numbering, V domains shown)
# VH: B1 VH
# VL: B1 VL with G59T
# notes: one-arm IgG1
# B15: CE115HA000/GLS3000 S25M (antibody, IgG1, name in Kabat numbering, V domains shown)
# VH: B1 VH
# VL: B1 VL with S25M, G59R
# notes: one-arm IgG1
# B16: CE115HA000/GLS3000 S25A (antibody, IgG1, name in Kabat numbering, V domains shown)
# VH: B1 VH
# VL: B1 VL with S25A, G59R
# notes: one-arm IgG1
# B17: CE115HA000/GLS3000 S25P (antibody, IgG1, name in Kabat numbering, V domains shown)
# VH: B1 VH
# VL: B1 VL with S25P, G59R
# notes: one-arm IgG1
# Target: T1, CD3 epsilon homodimer protein (UniProt P07766 23-126)
# T1 construct: also called CD3 (CD3 epsilon)
# T1 sequence (P07766 23-126): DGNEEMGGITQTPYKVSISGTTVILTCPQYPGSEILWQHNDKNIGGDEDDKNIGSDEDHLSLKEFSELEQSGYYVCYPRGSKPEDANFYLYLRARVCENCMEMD
# Assay: SPR, antibody over immobilised CD3e homodimer;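 also: SPR at 25 °C with CD3 epsilon homodimer amine-coupled to a CM4 sensor chip and antibody flowed over as analyte in HBS-EP+ running buffer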
row,Binder,KD ratio to GLS3000
1,B1,0.88
2,B2,0.67
3,B3,4.93
4,B4,1.06
5,B5,1.05
6,B6,0.65
7,B7,0.94
8,B8,0.75
9,B9,0.74
10,B10,0.78
11,B11,1.04
12,B12,8.86
13,B13,8.54
14,B14,0.89
15,B15,1.6
16,B16,0.73
17,B17,0.79
